Patent publication US20230303694A1 (LAVA THERAPEUTICS N V, published 2023)

B1: bispecific VHH 7D12var8-5C8var1-Y105F (bispecific antibody)
chain: EVQLVESGGGSVQPGGSLRLSCAASGRTSRSYGMGWFRQAPGKEREFVSGISWRGDSTGYADSVKGRFTISRDNAKNTVDLQMNSLRAEDTAVYYCAAAAGSAWYGTLYEYDYWGQGTLVTVSSGGGGSEVQLLESGGGSVQPGGSLRLSCAASGRPFSNYAMSWFRQAPGKEREFVSAISWSGGSTSYADSVKGRFTISRDNSKNTLYLQMNSLRAEDTAVYYCAAQFSGADFGFGRLGIRGYEYDYWGQGTQVTVSS
B2: 7D12var8-5C8var1(Y105F)-Fc (bispecific antibody, V domains shown)
V domain 1: EVQLVESGGGSVQPGGSLRLSCAASGRTSRSYGMGWFRQAPGKEREFVSGISWRGDSTGYADSVKGRFTISRDNAKNTVDLQMNSLRAEDTAVYYCAAAAGSAWYGTLYEYDYWGQGTLVTVSS
V domain 2: EVQLLESGGGSVQPGGSLRLSCAASGRPFSNYAMSWFRQAPGKEREFVSAISWSGGSTSYADSVKGRFTISRDNSKNTLYLQMNSLRAEDTAVYYCAAQFSGADFGFGRLGIRGYEYDYWGQGTQVTVSS
notes: Heterodimer of two VHH-Fc chains: the anti-EGFR 7D12var8-Fc (hole) and the anti-Vδ2 5C8var1(Y105F)-Fc (knob); The Fc is human IgG1 with L234F/L235E and a modified hinge; also called 7D12var8-5C8var1(Y105F) with Fc region

How the values were obtained:
[1] = biological target: T1, epidermal growth factor receptor (EGFR) on EGFR-expressing tumor cell lines A-431, HCT-116 and HT-29 (human, UniProt P00533 25-1210); assay: cell-based or functional assay
[2] = biological target: human Vγ9Vδ2 T cell receptor (TCR) on primary Vγ9Vδ2 T cells (human), Q99603; assay: cell-based or functional assay
[3] = biological target: T1, epidermal growth factor receptor (EGFR) …; assay: cell-based ELISA on A-431 cells, anti-IgG1-HRP, signal at 450 nm
Method: To this end, tumor cells were first seeded at different concentrations on day −1 to reach a concentration of approximately 50000 cells/well on day 0. […] Bound antibodies were then labelled in a secondary incubation step with anti-IgG1-HRP for one hour at 37° C. The secondary antibody binding was then resolved by the addition of 3,3′,5,5′-Tetramethylbenzidine and the colorimetric change induced by the HRP, followed by the addition of H2SO4 to stop the reaction. The optical density (OD) was then measured in a UV spectrometer at a wavelength of 450 nm.

Row | Binder | EC50 cytotoxicity (A431 tumor cell kill, 24 h, with Vγ9Vδ2 T cells) [1] [pM] | EC50 degranulation (CD107A+ Vγ9Vδ2 T cells, 4 h, with A431 cells) [2] [pM] | EC50 (read off the curve) [3] [nM]
1 | B1 | 2.5 | 11 | –
2 | B2 | – | – | ~2
